Laboratory results reported in the supplement of paper PMC12764529.
± gives the half width of the 95% confidence interval.

Key:
[1] = folding stability dG unfold (combined trypsin and chymotrypsin); higher = more stable
In short: (§1)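 Unfolding free energy was derived, per protease or combined, by relating Bayesian-fitted K50 values from sequencing counts to a sequence-predicted unfolded-state K50 and a shared folded-state K50. The underlying digests exposed cysteine-free mini-proteins under 80 residues, in a PA-tagged cDNA display construct, to trypsin and chymotrypsin at 11 threefold-diluted concentrations and to a no-protease condition. A filter kept only designs with AlphaFold2 dimer inter-PAE above 15.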

[2] = folding stability dG unfold from chymotrypsin proteolysis; higher = more stable
In short: as §1

[3] = folding stability dG unfold from trypsin proteolysis; higher = more stable
In short: as §1

Row | Sequence | folding stability dG unfold [1] | folding stability dG unfold [2] | folding stability dG unfold [3]
1 | SAGGSAGGSAGGPLKVEVIGSIEGDDRVYVLTRVPGVGGLFVAEYEKPSGKILSVSPVPLSAGGSAGGSAGG [r7_154_TrMRF] | 1.07 ± 0.081 kcal/mol | 1.3 ± 0.15 kcal/mol | 0.743 ± 0.065 kcal/mol
2 | SAGGDPDGKPKIEIKIKDINVEPDPDNGYYRATIKIRFPNGREINFDIPMPPGQTAEQVKEQAREMIQSAGG [r13_578_TrROS] | 1.45 ± 0.17 kcal/mol | 1.24 ± 0.095 kcal/mol | 1.77 ± 0.025 kcal/mol
3 | SAGGSAGGSAGGSKETVKIAIKVKPGEKEITIEIKGKKYKVKVEEKDGLLYLTVSKEDLSAGGSAGGSAGGS [r4_430_TrROS_Hall] | 3.34 ± 0.32 kcal/mol | 3.44 ± 0.22 kcal/mol | 4.4 ± 0.54 kcal/mol
4 | SAGGSAGGSAGGKVEIYENPSTPYLVVVVYNPETGEKTVVLFKPDNPELAEKVAKELASSAGGSAGGSAGGS [r10_1117_TrMRF] | 1.38 ± 0.11 kcal/mol | 1.81 ± 0.16 kcal/mol | 0.711 ± 0.077 kcal/mol
5 | SAGGSAGGSMIKRTVTVTVYFPGKPLSIPVEYTSEEELPVVAEEAVKPIIEKVPEYKIPEPKLSAGGSAGGS [r12_230_JUSTAS] | 0.561 ± 0.33 kcal/mol | 0.292 ± 0.2 kcal/mol | 0.529 ± 0.21 kcal/mol
6 | PPTSPEFRKALENIKKVDIEIEPYPNDGMVRMSIELKFPDKPVEIDIHYQYDPDGKINGMWARLDGKWIPIS [r1_274_TrROS] | 1.85 ± 0.2 kcal/mol | 1.99 ± 0.079 kcal/mol | 1.1 ± 0.091 kcal/mol
7 | SAGPPEQKIKIKWYPPDDGQPQEIPGPVDDIKDILDKLGWPVTNIETDPDDNEVEIWVPFPNWWLHIKISAG [r5_521_TrROS] | 1.53 ± 0.12 kcal/mol | 1.79 ± 0.069 kcal/mol | 0.884 ± 0.036 kcal/mol
8 | SAGGSAGKNKPFPLPILIEAHPDDPEEAAERLKAELEALFPGPIKVEIVEVDPEKGIITAIVTVDGSAGGSA [r15_1024_TrMRF] | 1.31 ± 0.096 kcal/mol | 1.58 ± 0.073 kcal/mol | 0.985 ± 0.038 kcal/mol
9 | SAAAAVAAAVAATLEALLPPGYRITAVTAEVAPDGTVTIPVTVEGPDGVPTLVVVTVDLATGEITVTVFGSA [r9_219_TrMRF] | 4.22 ± 0.22 kcal/mol | 4.63 ± 0.21 kcal/mol | 3.17 ± 0.16 kcal/mol
10 | SAGGSAGGSAGMVLLKSEEEAEELRKPNVSLSVTPVPPVEVSEGDPNALAYEVELKPPLESAGGSAGGSAGG [r11_168_JUSTAS] | 0.86 ± 0.11 kcal/mol | 0.0585 ± 0.17 kcal/mol | 1.49 ± 0.053 kcal/mol
11 | SGSLSIEFSSTEPSSPGSITLSKLFPEPEADRATHTIKLPNSTIELEFDSAEDLIKNVEKLLKELGNPGKSA [r9_258_JUSTAS] | 0.115 ± 0.12 kcal/mol | -0.0786 ± 0.18 kcal/mol | 0.297 ± 0.058 kcal/mol
12 | SAGGMTLTLTIKVKTTTVEKDAATGKETVRTETRTLTVTIEAESEEEALAALKKLLEELGFEIVEVTSAGGS [r16_459_TrROS_Hall] | 4.89 ± 0.28 kcal/mol | 5.1 ± 0.22 kcal/mol | 3.99 ± 0.27 kcal/mol
13 | SAGGSADKITVRVMPSPDGMYRVKIWHPGKKREYWMNPDDPDKMLEEFADEINPDRPIKVEVEPYKSAGGSA [r15_925_TrROS] | 0.467 ± 0.18 kcal/mol | 0.913 ± 0.16 kcal/mol | -0.919 ± 0.87 kcal/mol
14 | SAGGSAGGSAGGWYIYFPNHYYPIKKITINPGGNIEIEFPNGNERTFDNVSIMPPGQEISAGGSAGGSAGGS [r10_1151_TrROS] | 0.219 ± 0.097 kcal/mol | 0.105 ± 0.14 kcal/mol | 0.178 ± 0.047 kcal/mol
15 | SAGGSAGGEMTAEELAEKLAEELKEKGYEVEVEVVEVEVEEDTVRIKIKLKDGRELEIELKIEPSAGGSAGG [r6_617_TrROS_Hall] | 2.74 ± 0.25 kcal/mol | 2.79 ± 0.28 kcal/mol | 2.58 ± 0.16 kcal/mol
16 | SAGGSAGGSADKIPVKIKVKLKDGDKEYEVTVTVTLDVNDPNLDAFAKELASSGKIEEVEASAGGSAGGSAG [r3_30_TrMRF] | 0.973 ± 0.19 kcal/mol | 1.03 ± 0.15 kcal/mol | 0.877 ± 0.072 kcal/mol
17 | SAGGIRIRFWVPSPEEAREMAETIAKWLMEEHPGAKIKIEPKKVEPNPDNGYYRVEVPIKIVLPGQPISAGG [r13_585_TrROS] | 1.7 ± 0.042 kcal/mol | 1.89 ± 0.057 kcal/mol | 1.36 ± 0.051 kcal/mol
18 | SAGGSAGGSAKYILITAPKDNEEKVLEIAEELEKKYGVKLHKVERLPDGTVKALVEIFAPEKSAGGSAGGSA [r18_351_TrMRF] | 0.438 ± 0.14 kcal/mol | 0.674 ± 0.17 kcal/mol | 0.057 ± 0.073 kcal/mol
19 | SAGGSAGGSTPMSVEEIVERIKEEKRKENPNETVEIEFTAELKGGPEGAPEGIYPVKIKVPPGKSAGGSAGG [r6_79_JUSTAS] | 0.208 ± 0.12 kcal/mol | 0.489 ± 0.071 kcal/mol | 0.05 ± 0.051 kcal/mol
20 | SAGPSLEVEVERLPGPYVRITARYSRDVPVEVLVEELRAAAPVEVRVEEDPERDFVTVVAVLPLAPDAGSAG [r5_742_TrMRF] | 1.46 ± 0.08 kcal/mol | 1.46 ± 0.069 kcal/mol | 1.28 ± 0.031 kcal/mol
21 | SAGGFGIKIDEFDPDGEFRISIYDPDTWQPIAEFRIKIKPVPPPPPVEKRPYKDDDGEPKTVTHPDDQSAGG [r13_9_TrROS] | 1.43 ± 0.2 kcal/mol | 1.73 ± 0.19 kcal/mol | 0.542 ± 0.12 kcal/mol
